From patent publication US20230257476A1 (ELANCO US, published 2023)

Molecular target: T1, canine CD20 (canine, UniProt Q3C2E2 1-297)
T1 construct: whole, on cells; Endogenous antigen in acetone-fixed tissue cryosections (IHC); also called CD20 protein in dogs
T1 sequence (looked up): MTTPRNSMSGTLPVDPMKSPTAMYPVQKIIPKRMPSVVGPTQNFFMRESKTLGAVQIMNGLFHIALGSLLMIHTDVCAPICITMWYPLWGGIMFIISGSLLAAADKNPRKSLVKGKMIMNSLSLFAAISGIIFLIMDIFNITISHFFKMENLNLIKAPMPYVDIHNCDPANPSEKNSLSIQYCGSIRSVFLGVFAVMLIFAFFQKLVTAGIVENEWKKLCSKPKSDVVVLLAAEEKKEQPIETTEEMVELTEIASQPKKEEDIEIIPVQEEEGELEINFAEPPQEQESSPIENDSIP
Assay: IHC, precomplexed with biotinylated rabbit anti-dog IgG, cryosections of canine spleen, 10 ug/mL
Protocol: The detection reagent or negative control antibody (at a concentration of 10 […]) was mixed with biotinylated rabbit anti-dog IgG, Fc fragment-specific antibody (RbaDglgG) at a concentration of 15 ug/mL to achieve a primary : secondary antibody ratio of 1:1.5 on the day prior to staining.
Precomplexed antibodies were incubated overnight on a rocker mechanism in a refrigerator set to maintain 4° C., Prior to use of the antibody on the subsequent day, dog gamma globulins were added to each vial to achieve a final concentration of 3 mg/mL, and then incubated for at least 2 hours on the rocker mechanism in a refrigerator set to maintain 4° C. Slides were fixed in acetone for 10 minutes at room temperature at the time of sectioning. On the day of staining, the slides were rinsed twice with Tris-buffered saline, 0.15M NaCl, pH 7.6 TBS. Endogenous peroxidase was then quenched by incubation of the slides with an appropriate reagent such as Biocare PeroxAbolish reagent for 5 minutes at room temperature. Next, the slides were rinsed twice with TBS, incubated with the avidin solution for 15 minutes, rinsed once with TBS, incubated with the biotin solution for 15 minutes, and rinsed once with TBS, The slides were then treated with a protein block designed to reduce nonspecific binding for 20 minutes.

- binding result: binds
B1: K9LO-133 (antibody, V domains shown)
VH: EVQLVQSGAEVKKPGESLKISCKGSGRTFTSYNMHWVRQMPGKGLEWMGAIYPLTGDTSYNQKSKLQVTISADKSISTAYLQWSSLKASDTAMYYCARSTYVGGDWQFDVWGKGTTVTVSS
VL: EIVLTQSPGTLSLSPGERATLSCRASRSVPYIHWYQQKPGQAPRLLIYATSALASGIPDRFSGSGSGTDFTLTISRLEPEDFAVYYCQQWLSNPPTFGQGTKLEIKR
notes: In the IHC it was precomplexed with biotinylated rabbit anti-dog IgG Fc antibody; also called chimeric canine isotype C monoclonal antibody directed against canine CD20
